Results as given in the supplement of paper PMC10567573.

B1: ATE1 (parent)
chain: DYFPSEDFYRCGYCKNESGSRSNG
B2: PPFIA4 (parent)
chain: YAGNLHESGVHGALLALDENFDHN

Variants of: B1
Experiment: protein stability index of a GFP-peptide fusion (GPS, HEK-293T) (PSI 1-6); higher = more stable
Conditions: c terminus: a fixed tail appended
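Note: lentivirally expressed fusions sorted by FACS into six bins by GFP to DsRed ratio, PSI derived from sequencing read proportions per bin multiplied by bin number.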

Protein stability index: each site, then its substitutions
N23: I 1.52 | L 2.65 | P 1.91 | W 2.6 | K 2.51 | C 1.28 | H 2.16 | D 2.1 | S 2.32 | T 2.1 | Q 2.53 | F 1.26 | R 1.76 | E 2.29 | M 1.52 | V 1.25
S18: W 2.05 | Y 1.69
S20: V 2.25 | L 1.33 | I 2.01 | K 2.36 | H 2.1 | A 2.83 | C 1.86 | N 1.79 | F 1.72 | T 1.88 | M 2.51 | P 2.36 | Y 1.75 | Q 1.94 | E 2.5 | R 2.07 | G 2.53 | D 2.25
G24: R 2.5 | K 2.83 | E 2.67 | S 1.62 | F 1.92 | C 1.93 | P 3 | I 2.34 | M 1.89 | T 2.35 | N 2.09 | A 1.88 | Y 2.13 | W 1.78 | H 2.04 | D 2.26 | L 2.15 | V 1.75 | Q 1.93
G19: P 2.57 | H 2.03 | F 1.56 | T 2.04 | A 1.61 | R 1.76 | Y 1.6 | I 2.65 | E 2.52 | V 2.14 | L 2 | M 1.38 | N 1.84 | S 2.15 | W 3.29 | D 2.45 | C 1.93 | K 1.95 | Q 2.9
S22: D 2.6 | W 2.33 | H 2.01 | V 2.12 | M 3.37 | G 2.04 | K 2.02 | E 2.52 | R 1.68 | P 2.46 | Q 2.6 | I 2.54 | A 1.85 | Y 2.42 | L 1.57 | F 1.58 | N 2.07 | T 1.82 | C 2.17
R21: Q 2.67 | M 2.08 | T 2.24 | K 2.61 | C 2.83 | S 2.22 | A 2.54 | V 2.5 | Y 1.79 | I 1.79 | F 2.39 | L 1.58 | G 2.79 | P 2.69 | D 3.09 | N 2.47 | E 2.44 | H 2.19 | W 2.03

Variants of: B2
Experiment: as above
Conditions: c terminus: a fixed tail appended

Protein stability index, by site and new letter:
Y1: G 5.06 | R 3.7 | N 4.81 | K 4.5 | T 4.26 | L 4.49 | W 3.77 | P 5.39 | E 5.05 | Q 4.64 | M 4.81 | H 4.95 | A 4.8 | D 4.8 | V 4.85 | F 2.04 | C 3.94 | I 3.86 | S 5.03
G3: A 2.79 | T 2.69 | Q 3.12 | K 3.42 | V 3.11 | R 2.72 | I 2.81 | L 3.73 | P 2.29 | S 2.95 | M 3.55 | N 2.98 | C 2.64 | E 4.67 | H 2.92 | D 3.83 | F 2.29
A2: I 2.12 | P 3.96 | R 4.27 | L 3.65 | M 3.23 | F 3.84 | W 3.26 | K 4.68 | V 1.45 | C 2.38 | E 4.19 | Q 3.23 | D 4.38 | H 1.85 | S 3.31 | G 3.49 | N 4.32 | T 3.09 | Y 3.07
